The values below come from US20140072613A1, “Compositions and Methods for Treating Cutaneous Scarring” (priority 2012, published 2014).

Test in all cases: cell-based or functional assay
Assay [1] deals with CDK9/cyclin T1(h) (human) (UniProt P50750).
The target in assay [2] is MKK6(h) (human) (UniProt P52564).
The target in assay [3] is EphB1(h) (human) (UniProt P54762).
Assay [4] addresses FGFR2(h) (human) (UniProt P21802).
Assay [5] addresses CaMKIδ(h) (human) (UniProt Q8IU85).
Assay [6] addresses T1, Flt3(h) (human) (UniProt P36888).
T1 sequence (looked up): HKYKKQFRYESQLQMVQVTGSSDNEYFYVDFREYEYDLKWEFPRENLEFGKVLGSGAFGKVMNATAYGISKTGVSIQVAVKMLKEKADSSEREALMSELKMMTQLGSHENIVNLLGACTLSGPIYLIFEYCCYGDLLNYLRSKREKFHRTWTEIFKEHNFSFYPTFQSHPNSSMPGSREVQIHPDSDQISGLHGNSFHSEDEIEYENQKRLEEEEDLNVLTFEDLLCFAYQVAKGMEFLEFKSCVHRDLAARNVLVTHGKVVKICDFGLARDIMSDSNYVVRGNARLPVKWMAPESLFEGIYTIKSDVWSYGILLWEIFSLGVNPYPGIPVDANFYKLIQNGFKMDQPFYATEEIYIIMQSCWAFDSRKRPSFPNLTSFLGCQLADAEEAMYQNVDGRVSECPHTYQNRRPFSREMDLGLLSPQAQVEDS

For assay [7], the target named is Src(T341M)(h) (human) (UniProt P12931).
For assay [8], the target named is T2, Ret(V804L)(h) (human) (UniProt P07949).
T2 sequence (looked up): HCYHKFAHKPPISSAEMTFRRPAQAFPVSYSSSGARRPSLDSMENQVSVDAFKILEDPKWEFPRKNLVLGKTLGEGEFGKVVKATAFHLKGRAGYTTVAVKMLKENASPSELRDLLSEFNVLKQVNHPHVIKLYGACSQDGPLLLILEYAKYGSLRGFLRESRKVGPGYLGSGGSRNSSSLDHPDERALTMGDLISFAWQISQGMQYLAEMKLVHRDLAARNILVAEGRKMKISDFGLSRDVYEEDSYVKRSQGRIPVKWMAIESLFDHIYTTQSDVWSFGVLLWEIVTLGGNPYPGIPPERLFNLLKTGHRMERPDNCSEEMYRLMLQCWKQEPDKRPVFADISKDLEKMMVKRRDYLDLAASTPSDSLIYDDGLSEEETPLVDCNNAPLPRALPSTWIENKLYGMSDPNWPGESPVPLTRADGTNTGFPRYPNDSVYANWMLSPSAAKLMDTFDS

Assay [9] has as its target CaMKIV(h) (human) (UniProt Q16566).
For assay [10], the target named is Ros(h) (human) (UniProt P08922).
Assay [11] addresses T3, Flt1(h) (human) (UniProt P17948).
T3 sequence (looked up): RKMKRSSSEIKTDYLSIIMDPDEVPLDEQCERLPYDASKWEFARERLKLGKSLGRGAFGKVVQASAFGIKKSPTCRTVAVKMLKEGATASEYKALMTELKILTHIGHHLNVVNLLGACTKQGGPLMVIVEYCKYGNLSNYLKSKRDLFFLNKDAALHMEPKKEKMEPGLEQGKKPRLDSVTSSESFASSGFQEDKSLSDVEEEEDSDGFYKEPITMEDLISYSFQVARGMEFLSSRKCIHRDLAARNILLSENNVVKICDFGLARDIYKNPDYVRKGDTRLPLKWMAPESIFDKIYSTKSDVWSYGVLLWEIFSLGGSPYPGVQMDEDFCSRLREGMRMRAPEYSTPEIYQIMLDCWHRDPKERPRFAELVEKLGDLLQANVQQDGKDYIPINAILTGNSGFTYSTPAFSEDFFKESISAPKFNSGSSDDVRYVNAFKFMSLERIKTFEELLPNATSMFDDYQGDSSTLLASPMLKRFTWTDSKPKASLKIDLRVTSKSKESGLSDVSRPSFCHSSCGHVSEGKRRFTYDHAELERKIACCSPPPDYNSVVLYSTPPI

In assay [12] the target is T4, GCK(h) (human) (UniProt Q12851).
T4 sequence (looked up): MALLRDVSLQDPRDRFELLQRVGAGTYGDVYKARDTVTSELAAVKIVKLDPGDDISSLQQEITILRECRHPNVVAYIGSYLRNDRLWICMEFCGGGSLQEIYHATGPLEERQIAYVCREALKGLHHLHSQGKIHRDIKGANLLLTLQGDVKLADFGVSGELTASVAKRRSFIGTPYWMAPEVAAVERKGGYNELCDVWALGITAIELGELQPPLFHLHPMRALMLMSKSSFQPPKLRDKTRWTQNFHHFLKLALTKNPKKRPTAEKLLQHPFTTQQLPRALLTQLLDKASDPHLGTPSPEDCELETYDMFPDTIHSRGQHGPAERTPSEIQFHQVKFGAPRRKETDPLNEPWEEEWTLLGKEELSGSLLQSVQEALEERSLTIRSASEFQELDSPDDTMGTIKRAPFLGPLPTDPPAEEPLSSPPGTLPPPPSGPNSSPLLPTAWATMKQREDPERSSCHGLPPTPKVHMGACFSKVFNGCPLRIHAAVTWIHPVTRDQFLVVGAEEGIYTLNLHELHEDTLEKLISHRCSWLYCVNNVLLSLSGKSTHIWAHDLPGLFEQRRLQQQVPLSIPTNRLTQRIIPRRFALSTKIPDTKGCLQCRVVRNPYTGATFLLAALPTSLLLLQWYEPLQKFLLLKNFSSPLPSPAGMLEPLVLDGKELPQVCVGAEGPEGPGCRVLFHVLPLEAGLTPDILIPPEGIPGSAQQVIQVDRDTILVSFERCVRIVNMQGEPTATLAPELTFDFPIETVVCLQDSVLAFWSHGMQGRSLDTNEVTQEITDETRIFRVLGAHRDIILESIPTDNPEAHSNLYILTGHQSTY

For assay [13], the target named is CDK7/cyclinH/MAT1(h) (human) (UniProt P50613).
CDK7/cyclinH/MAT1(h) (human), sequence (P50613 whole entry, chain 1 of 3): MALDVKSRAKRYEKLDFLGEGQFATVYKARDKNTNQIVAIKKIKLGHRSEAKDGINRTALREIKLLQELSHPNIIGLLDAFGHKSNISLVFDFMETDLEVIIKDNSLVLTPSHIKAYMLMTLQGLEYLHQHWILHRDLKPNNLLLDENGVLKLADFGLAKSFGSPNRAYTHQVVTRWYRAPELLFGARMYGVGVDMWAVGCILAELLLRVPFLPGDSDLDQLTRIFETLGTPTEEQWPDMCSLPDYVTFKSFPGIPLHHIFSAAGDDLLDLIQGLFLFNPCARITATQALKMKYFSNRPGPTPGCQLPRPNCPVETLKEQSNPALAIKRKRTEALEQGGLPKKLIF
CDK7/cyclinH/MAT1(h) (human), sequence (P51946 whole entry, chain 2 of 3, further chain): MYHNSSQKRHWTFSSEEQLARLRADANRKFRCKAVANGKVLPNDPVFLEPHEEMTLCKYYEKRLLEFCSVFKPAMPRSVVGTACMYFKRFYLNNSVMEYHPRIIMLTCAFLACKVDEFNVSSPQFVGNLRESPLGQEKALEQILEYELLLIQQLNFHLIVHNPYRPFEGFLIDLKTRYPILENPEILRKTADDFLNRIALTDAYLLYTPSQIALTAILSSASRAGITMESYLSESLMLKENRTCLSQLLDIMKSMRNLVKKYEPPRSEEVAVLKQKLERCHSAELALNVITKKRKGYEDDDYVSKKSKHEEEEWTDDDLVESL
CDK7/cyclinH/MAT1(h) (human), sequence (P51948 whole entry, chain 3 of 3, further chain): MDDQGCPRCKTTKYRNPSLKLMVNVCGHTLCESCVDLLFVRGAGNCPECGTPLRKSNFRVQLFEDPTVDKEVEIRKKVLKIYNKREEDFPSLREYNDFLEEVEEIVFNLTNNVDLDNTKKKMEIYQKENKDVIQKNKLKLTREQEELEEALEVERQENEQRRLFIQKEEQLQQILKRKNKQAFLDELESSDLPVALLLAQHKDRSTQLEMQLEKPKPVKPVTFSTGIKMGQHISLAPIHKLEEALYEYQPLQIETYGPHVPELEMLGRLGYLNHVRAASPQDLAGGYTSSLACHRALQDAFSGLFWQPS

EphB1(h) (human), sequence (P54762 564-984 limits assumed): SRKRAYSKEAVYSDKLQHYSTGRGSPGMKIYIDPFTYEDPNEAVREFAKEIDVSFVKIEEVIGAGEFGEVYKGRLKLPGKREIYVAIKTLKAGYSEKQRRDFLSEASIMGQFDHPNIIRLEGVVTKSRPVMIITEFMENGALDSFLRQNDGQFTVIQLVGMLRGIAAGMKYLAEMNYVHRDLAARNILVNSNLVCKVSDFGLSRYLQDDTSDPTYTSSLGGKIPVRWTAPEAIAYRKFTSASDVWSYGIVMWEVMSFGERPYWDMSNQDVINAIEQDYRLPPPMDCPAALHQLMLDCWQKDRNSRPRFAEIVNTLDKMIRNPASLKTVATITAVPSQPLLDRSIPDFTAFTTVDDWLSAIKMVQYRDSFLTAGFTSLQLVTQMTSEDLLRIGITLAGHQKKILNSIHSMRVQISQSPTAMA
CaMKIδ(h) (human), sequence (Q8IU85 whole entry, stated change not applied): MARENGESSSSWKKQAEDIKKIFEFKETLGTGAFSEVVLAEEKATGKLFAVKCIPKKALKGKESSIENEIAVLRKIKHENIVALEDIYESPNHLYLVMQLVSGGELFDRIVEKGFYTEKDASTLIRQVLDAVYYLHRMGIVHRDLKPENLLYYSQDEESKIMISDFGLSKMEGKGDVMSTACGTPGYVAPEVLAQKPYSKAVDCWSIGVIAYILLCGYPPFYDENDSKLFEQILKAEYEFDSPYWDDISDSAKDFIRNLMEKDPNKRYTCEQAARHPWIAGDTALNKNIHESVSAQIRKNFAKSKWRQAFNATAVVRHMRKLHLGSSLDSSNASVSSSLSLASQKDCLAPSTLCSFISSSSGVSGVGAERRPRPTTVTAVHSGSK
CaMKIV(h) (human), sequence (Q16566 whole entry): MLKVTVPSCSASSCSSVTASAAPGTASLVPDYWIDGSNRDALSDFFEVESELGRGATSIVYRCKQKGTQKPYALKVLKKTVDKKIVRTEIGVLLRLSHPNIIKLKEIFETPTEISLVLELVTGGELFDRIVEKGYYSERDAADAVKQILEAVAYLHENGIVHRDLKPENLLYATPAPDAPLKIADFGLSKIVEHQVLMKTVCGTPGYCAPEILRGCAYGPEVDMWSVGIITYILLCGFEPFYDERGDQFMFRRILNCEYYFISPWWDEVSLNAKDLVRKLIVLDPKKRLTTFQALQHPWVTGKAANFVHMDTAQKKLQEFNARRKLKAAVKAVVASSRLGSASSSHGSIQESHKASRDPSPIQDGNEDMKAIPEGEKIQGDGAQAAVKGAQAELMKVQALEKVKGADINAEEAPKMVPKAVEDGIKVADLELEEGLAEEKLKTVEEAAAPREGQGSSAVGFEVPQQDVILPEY
Ros(h) (human), sequence (P08922 1883-2347 limits assumed): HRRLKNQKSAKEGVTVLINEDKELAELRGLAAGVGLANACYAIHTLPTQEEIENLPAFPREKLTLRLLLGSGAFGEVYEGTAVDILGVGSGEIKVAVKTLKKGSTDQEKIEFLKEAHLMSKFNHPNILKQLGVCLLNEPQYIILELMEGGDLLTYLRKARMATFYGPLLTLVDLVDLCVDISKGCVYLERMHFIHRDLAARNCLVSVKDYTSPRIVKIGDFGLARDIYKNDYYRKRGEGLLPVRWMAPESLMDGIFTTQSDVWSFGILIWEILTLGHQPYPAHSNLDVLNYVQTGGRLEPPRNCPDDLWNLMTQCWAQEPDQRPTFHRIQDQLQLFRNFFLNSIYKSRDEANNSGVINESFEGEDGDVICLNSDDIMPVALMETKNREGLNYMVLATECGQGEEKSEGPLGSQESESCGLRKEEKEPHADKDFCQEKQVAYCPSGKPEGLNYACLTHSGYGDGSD
MKK6(h) (human), sequence (P52564 whole entry): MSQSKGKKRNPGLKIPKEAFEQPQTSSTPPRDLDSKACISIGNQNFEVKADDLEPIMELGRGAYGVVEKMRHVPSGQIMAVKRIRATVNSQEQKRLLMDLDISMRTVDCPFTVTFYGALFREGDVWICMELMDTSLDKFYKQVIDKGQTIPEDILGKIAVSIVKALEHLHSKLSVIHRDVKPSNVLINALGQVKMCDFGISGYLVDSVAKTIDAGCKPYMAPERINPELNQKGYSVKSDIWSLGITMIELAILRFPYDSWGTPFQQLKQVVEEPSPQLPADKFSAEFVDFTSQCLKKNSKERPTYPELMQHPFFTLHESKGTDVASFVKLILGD
CDK9/cyclin T1(h) (human), sequence (P50750 whole entry, chain 1 of 2): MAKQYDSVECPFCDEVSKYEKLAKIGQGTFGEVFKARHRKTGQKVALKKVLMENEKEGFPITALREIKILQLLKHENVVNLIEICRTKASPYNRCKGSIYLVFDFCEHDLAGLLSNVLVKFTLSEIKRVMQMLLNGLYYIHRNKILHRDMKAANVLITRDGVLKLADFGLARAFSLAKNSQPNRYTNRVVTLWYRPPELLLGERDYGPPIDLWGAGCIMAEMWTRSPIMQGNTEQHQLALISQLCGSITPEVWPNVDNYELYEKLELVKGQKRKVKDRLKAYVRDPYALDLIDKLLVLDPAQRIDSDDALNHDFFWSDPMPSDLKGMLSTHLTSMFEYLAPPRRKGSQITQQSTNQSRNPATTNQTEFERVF
CDK9/cyclin T1(h) (human), sequence (O60563 whole entry, chain 2 of 2, further chain): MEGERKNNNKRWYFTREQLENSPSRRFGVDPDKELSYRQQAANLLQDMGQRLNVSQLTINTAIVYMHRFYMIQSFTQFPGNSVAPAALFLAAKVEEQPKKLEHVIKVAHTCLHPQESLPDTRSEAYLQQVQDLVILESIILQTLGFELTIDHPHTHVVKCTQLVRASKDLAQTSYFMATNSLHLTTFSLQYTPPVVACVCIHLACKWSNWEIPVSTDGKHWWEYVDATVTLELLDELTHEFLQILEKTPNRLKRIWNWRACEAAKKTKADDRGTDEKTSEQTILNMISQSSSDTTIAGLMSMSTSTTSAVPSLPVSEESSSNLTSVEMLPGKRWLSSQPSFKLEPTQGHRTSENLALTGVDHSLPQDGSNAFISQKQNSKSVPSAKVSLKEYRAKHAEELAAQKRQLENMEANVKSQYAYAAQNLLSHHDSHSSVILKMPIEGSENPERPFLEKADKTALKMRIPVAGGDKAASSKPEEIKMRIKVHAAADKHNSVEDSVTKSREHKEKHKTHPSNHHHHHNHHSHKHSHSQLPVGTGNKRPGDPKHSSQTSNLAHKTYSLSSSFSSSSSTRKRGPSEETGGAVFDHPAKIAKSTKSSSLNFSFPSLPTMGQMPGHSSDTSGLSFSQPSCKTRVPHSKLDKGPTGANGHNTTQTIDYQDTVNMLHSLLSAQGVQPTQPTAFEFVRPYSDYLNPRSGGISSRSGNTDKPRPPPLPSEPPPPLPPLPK
FGFR2(h) (human), sequence (P21802 456-770 limits assumed): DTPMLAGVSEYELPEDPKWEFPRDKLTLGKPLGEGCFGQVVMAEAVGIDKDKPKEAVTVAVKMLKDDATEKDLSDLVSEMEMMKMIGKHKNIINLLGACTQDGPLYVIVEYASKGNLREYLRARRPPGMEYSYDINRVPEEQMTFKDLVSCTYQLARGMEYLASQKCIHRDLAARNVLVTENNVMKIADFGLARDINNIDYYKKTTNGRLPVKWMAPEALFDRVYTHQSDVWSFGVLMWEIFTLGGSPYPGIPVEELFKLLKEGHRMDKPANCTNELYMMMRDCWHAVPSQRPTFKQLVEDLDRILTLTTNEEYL

MMI-0500 (peptide): the % activity, 100 µM came to 6% in assay [1]; 18% in assay [2]; 37% in assay [3]; 12% in assay [4]; 0% in assay [5]; 17% in [6]. Besides, the % activity, 100 µM in assay [7] was 59%; in assay [8], 20%; in [9], -1%; in assay [10], 150%; in [11], 27%; in assay [12] it was 30%. The % activity, 100 µM in assay [13] was found to be 15%.
